From patent US20130289253A1
“And” between values parts separate entries of the source, which are not always exact repeats. Equal values may be shown once. Read-outs that look alike come from different tables or passages of the source.

Legend:
[1] = target: control (Fig. 49)
[2] = target: control (Fig. 49); remark: listed apart in the source

For “DR4 2×His DTB-HA306-318 complexes (DTB-streptactin purified monomers) (from UniProt P01903 26-216) (peptide-MHC)”, the % of cells in Q2 (multimer+ CD4+) [1] was 0.985% and 0.623% and the % of cells in Q2 (multimer+ CD4+) [2] was 0.535% and 0.421%.
